Assay results taken from patent US20240199755A1 (KYMAB, published 2024).

Experiments:
BMP-4 = assay: SPR steady state analysis, BMP-4 immobilised, Tfr2-ECD 10-5000 nM as analyte, 1:1 interaction assumed
Protocol: (§1) The binding analysis was performed at 37° C. at a flow rate of 30 μl/min. Each analyte was diluted in running buffer (HBS-P (pH 7.4), 150 mM NaCl, supplemented with 50 nM FeCl₃). In some experiments, 500 mM NaCl were used to reduce potential non-specific binding. […] Concentration-dependent binding of holo-Tf was performed without intermediate regeneration.
(§2) The kinetic fitting was performed by global fitting using the 1:1 Langmuir binding model (A+B=AB). Steady state analyses were conducted to determine the affinities (Kd). […] Binding and kinetic parameters were evaluated with Biacore™ T200 evaluation software 3.1.

BMP-2 [1] = target: T1, BMP-2; assay: SPR binding level normalised to molecular weight, Tfr2-ECD immobilised; reference holo-Tf
T1 construct: The BMP-2 used in the heterotopic ossification model was from Thermo Fisher, and in the co-IP from Peprotech; Species is never stated, so all are treated as one molecule; also called bone morphogenetic protein 2
T1 sequence (P12643 283-396, species assumed, looked up): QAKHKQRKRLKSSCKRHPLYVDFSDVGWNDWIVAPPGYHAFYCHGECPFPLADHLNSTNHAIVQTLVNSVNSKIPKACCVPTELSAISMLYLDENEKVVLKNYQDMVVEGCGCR
Protocol: All experiments were performed three independent times. FIG. 15a: Quantification of the binding level normalized to the molecular weight. […] FIG. 15b: Binding response of different concentrations of holo-Tf and/or BMP-2. […] (n=4). FIG. 15d: SPR analyses. […] Binding response is relative to BMP-2 alone. […] FIGS. 15b and 15d: One-way ANOVA was used for statistical analysis. […] Two-way ANOVA with Bonferroni post-hoc test was used for statistical analysis. […] All data are presented as mean±SD.

BMP-2 [2] = target: T1, BMP-2; assay: SPR steady state analysis, BMP-2 immobilised, Tfr2-ECD 10-5000 nM as analyte, 1:1 interaction assumed
Protocol: as §1, §2

Sequence of BMP-4 (P12644 293-408): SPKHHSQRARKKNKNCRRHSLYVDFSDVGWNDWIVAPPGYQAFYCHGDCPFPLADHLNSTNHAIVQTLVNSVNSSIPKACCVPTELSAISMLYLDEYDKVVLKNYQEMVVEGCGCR

Kd (BMP-4): 409 nM
fold binding relative to holo-Tf (BMP-2 [1]): 10 fold
Kd (BMP-2 [2]): 488 nM
B1: Tfr2 extracellular domain (Tfr2-ECD), murine, aa 103-798, recombinant His-tagged (receptor, not shown: large carriers)
chain: RGSCQACGDSVLVVDEDVNPEDSGRTTLYWSDLQAMFLRFLGEGRMEDTIRLTSLRERVAGSARMATLVQDILDKLSRQKLDHVWTDTHYVGLQFPDPAHANTLHWVDADGSVQEQLPLEDPEVYCPYSATGNATGKLVYAHYGRSEDLQDLKAKGVELAGSLLLVRVGITSFAQKVAVAQDFGAQGVLIYPDPSDFSQDPHKPGLSSHQAVYGHVHLGTGDPYTPGFPSFNQTQFPPVESSGLPSIPAQPISADIADQLLRKLTGPVAPQEWKGHLSGSPYRLGPGPDLRLVVNNHRVSTPISNIFACIEGFAEPDHYVVIGAQRDAWGPGAAKSAVGTAILLELVRTFSSMVSNGFRPRRSLLFISWDGGDFGSVGATEWLEGYLSVLHLKAVVYVSLDNSVLGDGKFHAKTSPLLVSLIENILKQVDSPNHSGQTLYEQVALTHPSWDAEVIQPLPMDSSAYSFTAFAGVPAVEFSFMEDDRVYPFLHTKEDTYENLHKMLRGRLPAVVQAVAQLAGQLLIRLSHDHLLPLDFGRYGDVVLRHIGNLNEFSGDLKERGLTLQWVYSARGDYIRAAEKLRKEIYSSERNDERLMRMYNVRIMRVEFYFLSQYVSPADSPFRHIFLGQGDHTLGALVDHLRMLRADGSGAASSRLTAGLGFQESRFRRQLALLTWTLQGAANALSGDVWNIDNNF
notes: Expressed in Sf9 insect cells (pOCC211-Tfr2-ECD) and purified on HisTrap; Experiments were repeated with a commercial Tfr2-ECD from Cusabio (aa 103-798); also called His-Tfr2-ECD; His-MBP-c3-Tfr2-ECD
